Here are results for three molecules from patent US20070243170A1 (UNIVERSITY OF CHICAGO, published 2007).

The target of test [1] is HveA (formerly HveM) (UniProt Q92956). Kind of test: cell-based or functional assay.
The target in test [2] is Nectin-1 (HveC) (UniProt Q15223). In words: cell-based or functional assay.
Test [3] has as its target wild-type gD1-60 polypeptide (residues 1-60 of mature gD; plasmid pGG5414) (herpes simplex virus 1, UniProt P36318 26-85). Kind of test: co-immunoprecipitation with anti-Myc from HEK293 cells co-transfected with pGG5417+pGG5414.

“IL13-gD chimeric glycoprotein D of recombinant virus R5141 (IL13 in the place of gD residues 1-32, V34S)” displayed a Replication of R5141 in J-HveA cells (virus yield) in test [1] of 40. Further, in test [2], the Replication of R5141 in J-Nectin cells (virus yield) was 70.

In test [1], “IL13-gD chimeric glycoprotein D of recombinant virus R5144 (IL13 in the place of gD residues 1-32, V37S)” displayed a Replication of R5144 in J-HveA cells (virus yield) of 300. In test [2], this molecule showed a Replication of R5144 in J-Nectin cells (virus yield) of 50.

B1: gD219-314 polypeptide (mature gD residues 219-314, without transmembrane and cytoplasmic domains, Myc epitope at the C-terminus; plasmid pGG5417) (other)
chain: MLPRFIPENQRTVAVYSLKIAGWHGPKAPYTSTLLPPELSETPNATQPELAPEDPEDSALLEDPVGTVVPQIPPNWHIPSIQDAATPYHPPATPNN
notes: Expressed in HEK293 cells under the CMV promoter; also called C-terminal domain of gD; R5417
Consider B1, for which the binding result in test [3] is on record as “no binding”.
